Results as given in the supplement of paper PMC9112550, “Optimization of the antimicrobial peptide Bac7 by deep mutational scanning” (BMC Biology, 2022).

Each sequence was assayed on Escherichia coli TOP10 (assay: shrunken log2 fold change of peptide-encoding DNA abundance (4.5 h post-induction vs induction); higher = less antimicrobial activity (less host growth inhibition)). Details: time post-induction: 4.5 h; library: site-saturation at positions 5, 18, 19, 20.
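Also: peptides expressed intracellularly from a pBAD plasmid library in pooled LB shake-flask culture, induced with 0.3% L-arabinose, DNA abundance read by NGS, three biological replicates, DESeq2 with apeglm shrinkage.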

| Sequence | shrunken log2 fold change |
| --- | --- |
| RRIRARPPRLPRPRPRPVWAPRP | 0.305 |
| RRIRARPPRLPRPRPRPVWTPRP | 0.527 |
| RRIRARPPRLPRPRPRPVYVPRP | 0.111 |
| RRIRARPPRLPRPRPRPWADPRP | 0.0394 |
| RRIRARPPRLPRPRPRPWCIPRP | -0.319 |
| RRIRARPPRLPRPRPRPWCMPRP | -0.223 |
| RRIRARPPRLPRPRPRPWCQPRP | -0.031 |
| RRIRARPPRLPRPRPRPWFLPRP | -0.399 |
| RRIRARPPRLPRPRPRPWHSPRP | 0.0528 |
| RRIRARPPRLPRPRPRPWIFPRP | -0.114 |
| RRIRARPPRLPRPRPRPWIVPRP | -0.0598 |
| RRIRARPPRLPRPRPRPWKIPRP | -0.117 |
| RRIRARPPRLPRPRPRPWLMPRP | 0.0299 |
| RRIRARPPRLPRPRPRPWMCPRP | -0.12 |
| RRIRARPPRLPRPRPRPWQMPRP | -0.0506 |
| RRIRARPPRLPRPRPRPWQPPRP | 0.0351 |
| RRIRARPPRLPRPRPRPWRTPRP | 0.14 |
| RRIRARPPRLPRPRPRPWVGPRP | 0.271 |
| RRIRARPPRLPRPRPRPWWGPRP | 3.62 |
| RRIRARPPRLPRPRPRPYALPRP | 0.0681 |
| RRIRARPPRLPRPRPRPYDFPRP | -0.772 |
| RRIRARPPRLPRPRPRPYFCPRP | -0.346 |
| RRIRARPPRLPRPRPRPYGQPRP | -0.163 |
| RRIRARPPRLPRPRPRPYKAPRP | -0.302 |
| RRIRARPPRLPRPRPRPYKQPRP | -0.295 |

| Sequence | shrunken log2 fold change |
| --- | --- |
| RRIRARPPRLPRPRPRPYLCPRP | -0.291 |
| RRIRARPPRLPRPRPRPYNTPRP | -0.606 |
| RRIRARPPRLPRPRPRPYQHPRP | -0.272 |
| RRIRARPPRLPRPRPRPYQSPRP | -0.0285 |
| RRIRARPPRLPRPRPRPYRVPRP | -0.211 |
| RRIRARPPRLPRPRPRPYSGPRP | -0.0581 |
| RRIRARPPRLPRPRPRPYWKPRP | -0.0819 |
| RRIRARPPRLPRPRPRPYYEPRP | -1.02 |
| RRIRARPPRLPRPRPRPYYSPRP | -0.173 |
| RRIRARPPRLPRPRPRPYYWPRP | -0.77 |
| RRIRCRPPRLPRPRPRPAAMPRP | 0.281 |
| RRIRCRPPRLPRPRPRPADYPRP | -0.263 |
| RRIRCRPPRLPRPRPRPAEKPRP | -0.0214 |
| RRIRCRPPRLPRPRPRPAHGPRP | 0.23 |
| RRIRCRPPRLPRPRPRPAHTPRP | -0.0293 |
| RRIRCRPPRLPRPRPRPAIKPRP | -0.738 |
| RRIRCRPPRLPRPRPRPALIPRP | -0.0928 |
| RRIRCRPPRLPRPRPRPANDPRP | -0.799 |
| RRIRCRPPRLPRPRPRPANVPRP | -0.0934 |
| RRIRCRPPRLPRPRPRPAPIPRP | 1.74 |
| RRIRCRPPRLPRPRPRPASIPRP | -0.612 |
| RRIRCRPPRLPRPRPRPATCPRP | -0.0745 |
| RRIRCRPPRLPRPRPRPATGPRP | 0.201 |
| RRIRCRPPRLPRPRPRPATWPRP | -0.104 |
| RRIRCRPPRLPRPRPRPAVNPRP | -0.386 |

| Sequence | shrunken log2 fold change |
| --- | --- |
| RRIRCRPPRLPRPRPRPAVRPRP | 0.0848 |
| RRIRCRPPRLPRPRPRPAWNPRP | 0.035 |
| RRIRCRPPRLPRPRPRPAWQPRP | 0.359 |
| RRIRCRPPRLPRPRPRPAYAPRP | 0.00565 |
| RRIRCRPPRLPRPRPRPAYEPRP | -0.28 |
| RRIRCRPPRLPRPRPRPAYGPRP | 0.13 |
| RRIRCRPPRLPRPRPRPAYSPRP | -0.97 |
| RRIRCRPPRLPRPRPRPCADPRP | -0.0836 |
| RRIRCRPPRLPRPRPRPCAWPRP | 0.0576 |
| RRIRCRPPRLPRPRPRPCCCPRP | -0.224 |
| RRIRCRPPRLPRPRPRPCEVPRP | -0.251 |
| RRIRCRPPRLPRPRPRPCFEPRP | -0.00928 |
| RRIRCRPPRLPRPRPRPCGEPRP | 0.218 |
| RRIRCRPPRLPRPRPRPCGIPRP | 0.153 |
| RRIRCRPPRLPRPRPRPCHEPRP | -0.0566 |
| RRIRCRPPRLPRPRPRPCHMPRP | -0.443 |
| RRIRCRPPRLPRPRPRPCIDPRP | -0.385 |
| RRIRCRPPRLPRPRPRPCINPRP | -0.0741 |
| RRIRCRPPRLPRPRPRPCKCPRP | -0.0236 |
| RRIRCRPPRLPRPRPRPCKFPRP | -0.431 |
| RRIRCRPPRLPRPRPRPCLFPRP | -0.333 |
| RRIRCRPPRLPRPRPRPCMRPRP | 0.0312 |
| RRIRCRPPRLPRPRPRPCPGPRP | -0.191 |
| RRIRCRPPRLPRPRPRPCPPPRP | -0.0764 |
| RRIRCRPPRLPRPRPRPCQWPRP | -0.00783 |
